Results from publication PMC8363014, “OsMADS23 phosphorylated by SAPK9 confers drought and salt tolerance by regulating ABA biosynthesis in rice”.

B1: OsNCED2-a (probe 1) (dsDNA)
DNA 1: AACATTCTATCCCATAAAATTGTGTTTTGTTGCAAATGTCC
DNA 2: GGACATTTGCAACAAAACACAATTTTATGGGATAGAATGTT
modifications: 3' biotin
B2: OsNCED2-b (probe 2) (dsDNA)
DNA 1: GGGGTTGTCTATGTAACATATAATTGGATATATATTCATTCC
DNA 2: GGAATGAATATATATCCAATTATATGTTACATAGACAACCCC
modifications: 3' biotin
B3: OsNCED2-c (probe 3) (dsDNA)
DNA 1: GGGGCTAATAATTAGCCTTCCAAAATTTTGCTATTTATAAGTA
DNA 2: TACTTATAAATAGCAAAATTTTGGAAGGCTAATTATTAGCCCC
modifications: 3' biotin

What follows are binders tested against OsMADS23 (Oryza sativa (rice), UniProt Q6VAM4 1-159) (assay: EMSA; signal reduced by excess unlabeled probe; LightShift Chemiluminescent EMSA kit (Thermo), manufacturer's instructions; buffer, salt, pH and temperature not stated). Conditions: protein: recombinant; tags: His, trigger factor (pCold-TF); chain copies: 2; label: biotin; blunt.
Chain of OsMADS23 (Q6VAM4 whole entry): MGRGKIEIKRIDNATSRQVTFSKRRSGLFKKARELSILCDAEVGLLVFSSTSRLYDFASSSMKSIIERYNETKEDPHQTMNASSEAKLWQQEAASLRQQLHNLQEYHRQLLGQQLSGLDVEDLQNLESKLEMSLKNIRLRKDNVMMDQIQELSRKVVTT

Binding result, binds:
B1
B2
B3
